Consider three molecules from PMC13483459.

For the assay, the target named is retromer–SNX3 complex (VPS26A, VPS35-VPS29 fusion, SNX3) (human) (UniProt Q96QK1).

As to KRQKGKPKRKSK [AAVR cytosolic tail peptide lacking the predicted sorting signal (residues 956-967)], the proportion of liposomes tubulated (cryo-EM; liposomes with retromer, SNX3 and the peptide lacking the motif) worked out at 0%.

In turn, KRQKGKPKRKSKYKILDAT [AAVR cytosolic tail peptide (residues 956-974)] registered a mean tube length per liposome (liposome tubulation with retromer and SNX3) of 503 nm; a proportion of liposomes tubulated (cryo-EM; 2.5 uM retromer, 8.75 uM SNX3, 25 uM peptide, 600 uM liposomes, overnight at 4°C; n = 3) of 3.54%.

For the molecule AQPELYLLNTMDADSLVSR [DMT1-II cargo peptide (residues 550-568)], the mean tube length per liposome (liposome tubulation with retromer and SNX3) came to 568 nm; the proportion of liposomes tubulated (cryo-EM; 2.5 uM retromer, 8.75 uM SNX3, 25 uM peptide, 600 uM liposomes, overnight at 4°C; n = 3) was 4.15%.
